The values that follow come from patent US20260242504A1 (CHIOME BIOSCIENCE, published 2026).

In assay [1] the target is T1, recombinant human 5T4 protein (5T4/His) (human, UniProt Q13641 32-355).
T1 construct: also called Human 5T4/His; recombinant 5T4; not shown: His tag of the bought protein
T1 sequence: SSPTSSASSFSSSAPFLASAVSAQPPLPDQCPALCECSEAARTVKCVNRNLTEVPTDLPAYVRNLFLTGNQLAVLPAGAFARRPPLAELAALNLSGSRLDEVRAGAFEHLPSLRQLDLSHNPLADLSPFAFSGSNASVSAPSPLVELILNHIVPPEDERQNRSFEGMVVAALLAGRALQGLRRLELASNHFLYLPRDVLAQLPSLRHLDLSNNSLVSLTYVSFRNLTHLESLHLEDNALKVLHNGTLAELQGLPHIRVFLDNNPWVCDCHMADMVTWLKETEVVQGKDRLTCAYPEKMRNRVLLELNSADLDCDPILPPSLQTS
As to the kind of experiment: ELISA, immobilized recombinant human 5T4, 0-500 nM (N=2). As for the experimental part:
The binding affinity of purified 53L10-M13 to 5T4 antigen was examined by ELISA (FIG. 14). A recombinant human 5T4 protein (ACRO Biosystems) was immobilized in a 96-well plate using the same method as that performed in FIG. 2 (Example 1). […] The curve showing the binding affinity of 53L10-M13 to 5T4 overlapped with the curve showing the binding affinity of 53L10 (●) to 5T4. The EC₅₀ values were 0.58 nM for 53L10-M13 and 0.53 nM for 53L10 (FIG. 14B).

For assay [2], the target named is T2, 5T4 on 5T4-expressing CHO-K1 cells (UniProt Q13641 32-420).
T2 sequence (looked up): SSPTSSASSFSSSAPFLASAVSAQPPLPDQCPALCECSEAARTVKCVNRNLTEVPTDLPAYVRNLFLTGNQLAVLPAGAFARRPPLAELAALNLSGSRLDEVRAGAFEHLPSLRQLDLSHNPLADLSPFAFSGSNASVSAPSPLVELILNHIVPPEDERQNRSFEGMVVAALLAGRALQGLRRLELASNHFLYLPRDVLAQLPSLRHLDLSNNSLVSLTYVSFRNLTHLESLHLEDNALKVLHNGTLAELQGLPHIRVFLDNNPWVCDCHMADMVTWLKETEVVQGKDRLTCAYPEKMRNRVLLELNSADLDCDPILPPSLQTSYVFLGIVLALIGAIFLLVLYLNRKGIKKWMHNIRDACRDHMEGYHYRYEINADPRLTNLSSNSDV
As to the kind of experiment: cell-based or functional assay.

Assay [3] addresses T3, recombinant human PD-L1/Fc (human, UniProt Q9NZQ7 19-239, biotinylated in the competitive ELISA (sites not given)).
T3 construct: Bought from R&D Systems; also called recombinant PD-L1 protein; biotinylated PD-L1 ligand; not shown: Fc part of the bought fusion
Briefly: ELISA, immobilized recombinant human PD-L1/Fc, 0-500 nM (N=2). The procedure:
The binding affinity of purified 53L10-M13 to recombinant PD-L1 protein was examined by ELISA (FIG. 16). A recombinant human PD-L1/Fc protein (R&D Biosystems) was immobilized in a 96-well plate using the same method as that performed in Example 4. According to the procedure described in “Materials and Methods” later, the binding assay of 53L10-M13 and 53L10 to human PD-L1 protein was performed at increasing concentrations (0-500 nM). […] The curve showing the binding affinity of 53L10-M13 to PD-L1 overlapped with the curve showing the binding affinity of 53L10 (●) to PD-L1.

Assay [4] has as its target T4, recombinant human PD-1/Fc (human, UniProt Q15116 25-167).
T4 construct: Bought from R&D Systems; also called recombinant PD-1 protein; immobilized PD-1 receptor; not shown: Fc part of the bought fusion
Briefly: ELISA, immobilized recombinant human PD-1 (per the legend of FIG. 4B; the sentence prints PD-L1). An excerpt:
To verify whether the novel tribodies including a binding arm to PD-L1 or PD-1 have a satisfactory binding affinity for their target recombinant proteins, we perfomed ELISA assays on immobilized PD-1 or PD-L1 proteins (FIG. 4).
A general note: An ELISA detects its analyte on a solid surface through an enzyme-linked reagent.

For assay [5], the target named is T1, recombinant human 5T4 protein (5T4/His). As to the kind of experiment: ELISA, immobilized recombinant human 5T4, tribody 0-500 nM. As for the experimental part: A recombinant human 5T4 protein (AMSBio) was immobilized onto 96-well ELISA plates. The binding assay of Tb535H and purified novel tribodies was performed by testing at increasing concentrations (0-500 nM) were carried out according to the procedure described in Materials and Methods. […] The Tb535H has two 5T4 binding arms derived from Fab and scFv, and the novel 53X tribody constructed has a monovalent 5T4 binding arm derived from a single Fab.

T4 sequence (Q15116 25-167 limits assumed): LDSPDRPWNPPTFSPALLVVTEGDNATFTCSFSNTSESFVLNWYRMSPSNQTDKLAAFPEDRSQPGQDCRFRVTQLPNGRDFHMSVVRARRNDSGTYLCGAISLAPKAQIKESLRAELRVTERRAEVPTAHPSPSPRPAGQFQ
T3 sequence (Q9NZQ7 19-239 limits assumed): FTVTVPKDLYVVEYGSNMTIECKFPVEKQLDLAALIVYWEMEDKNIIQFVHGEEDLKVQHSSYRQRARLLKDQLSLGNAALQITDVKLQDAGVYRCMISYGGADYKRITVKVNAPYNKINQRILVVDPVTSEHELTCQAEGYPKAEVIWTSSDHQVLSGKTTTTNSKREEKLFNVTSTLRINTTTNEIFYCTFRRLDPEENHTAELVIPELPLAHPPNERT

B1: 53L10-M13 (other)
chain 1: QVQLVQSGAEVKKPGASVKVSCKASGYSFTSYYMHWVKQSPGQGLEWIGRINPNNGVTLYNQKFKDRVTMTRDTSISTAYMELSRLRSDDTAVYYCARSTMITNYVMDYWGQGTLVTVSSASTKGPSVFPLAPSSKSTSGGTAALGCLVKDYFPEPVTVSWNSGALTSGVHTFPAVLQSSGLYSLSSVVTVPSSSLGTQTYICNVNHKPSNTKVDKKVEPKSCDKTHTGPGGGSPGQVQLVQSGAELKKPGASVKVSCKASGYTFTRYTMHWVRQAPGQCLEWMGYINPSRGYTNYNQKFKDKATLTADKSTSTAYMELRSLRSDDTAVYYCARYYDDHYSLDYWGQGTLVTVSSASGGGGSGGGGSGGGGSAGDIQLTQSPSILSASVGDRVTITCRASSSVSYMNWYQQKPGKAPKRWIYDTSKVASGVPYRFSGSGSGTEYTLTISSMQPEDFATYYCQQWSSNPLTFGCGTKVEIKSG
chain 2: not shown
notes: also called 53L10 mutant; 53L0-M13
On to B1, for which the values for the EC50 in assay [1] and in assay [3] were 0.58 nM and 36.9 nM, respectively. In addition, the “EC50 of luciferase activity, T cell activation bioassay (NFAT) with CHO-5T4 target cells” value in assay [2] came out at 0.016 nM.

B2: 53D tribody (other)
chain 1: B1 chain 1
chain 2: not shown
notes: Trispecific tribody, a heterodimer; H chain derivative: VH(5T4)-CH1-scFv(hOKT3); L chain derivative: VL(5T4)-CL-scFv(PD-1.1); also called 5T4xCD3xPD-1
B2: the binding result in assay [4] and in assay [5] was “binds” each time.

B3: 53G tribody (other)
chain 1: B1 chain 1
chain 2: not shown
notes: Trispecific tribody, a heterodimer; L chain derivative: VL(5T4)-CL-scFv(LAG3.1); also called 5T4xCD3xLAG3
Take B3: the binding result in assay [5] is “binds”.

B4: 53P tribody (other)
chain 1: B1 chain 1
chain 2: not shown
notes: also called 5T4xCD3xisotype control
Turning to B4, the binding result in assay [5] is recorded as “binds”.
